What was measured:
[1] = test system: plant ATCs; design: method as in PMID 14479231, doi:10.1093/jxb/40.10.1121; conditions: cited from earlier work
[2] = target: the molecule itself; assay: SEC-MALS; 400 ul of purified protein at 1.4 mg/ml on Superdex 200 10/300 in GF buffer (20 mM Tris pH 7.0, 0.1 M NaCl, 2% glycerol, 0.2 mM TCEP), 0.5 ml/min; self-association: homotrimer
[3] = substrate: NC(=O)OP(=O)(O)O; assay: purified protein, by the assay type; conditions: other: WT, CP variable, 10 mM Asp, absence of UMP; pH 8.3
[4] = target: the molecule itself; assay: crystal structure; X-ray crystal structures of the trimer (with UMP, apo, with PALA, with PALA + CP, with CP; F161A with UMP or PALA); sitting-drop vapor diffusion at room temperature, PEG 3350 conditions, data at 100 K
[5] = substrate: NC(=O)OP(=O)(O)O; assay: Colorimetric ATC activity assay, atATC F161A; type: biochemical, Arabidopsis thaliana; conditions: other: F161A, CP variable, 10 mM Asp; pH 8.3
Experimental: Activity was assayed by a colorimetric method[64] adapted to a 96-well plate format[24]. […] Reagent B is light sensitive and was stored at 4 °C in the dark. The color reagents were gently mixed and stored at 4 °C in the dark until added to the sample. Reaction tubes were closed, boiled at 95 °C for 15 min, and kept in the dark for 30 min before measuring the absorbance at 450 nm in a Tecan infinite m200 microplate reader (Tecan). […] Data analysis was done with GraphPad. In the absence of inhibitors, WT kinetics obey Michaelis-Menten equation v = [Vmax·X/K0.5 + X], where X is substrate concentration and K0.5 is the substrate concentration at which the initial rate (v) is one-half of the maximum velocity (Vmax)]. […] Protein concentration in the assay was 0.3 µM (0.01 mg ml^−1) both for WT and F161A.

For `O=c1ccn([C@@H]2O[C@H](COP(=O)(O)OP(=O)(O)OP(=O)(O)O)[C@@H](O)[C@H]2O)c(=O)[nH]1` [UTP], the “inhibition of plant ATCs” value [1] is listed as “not inhibitors”.

B1: Arabidopsis aspartate transcarbamoylase, construct spanning aa 82-390 (atATC) (enzyme, Arabidopsis thaliana, UniProt P49077 82-390, looked up)
chain: FELSDVIEGKQFDREMLSAIFDVAREMEKIEKSSSQSEILKGYLMATLFYEPSTRTRLSFESAMKRLGGEVLTTENAREFSSAAKGETLEDTIRTVEGYSDIIVMRHFESGAARKAAATANIPVINAGDGPGEHPTQALLDVYTIQSEIGKLDGISVALVGDLANGRTVRSLAYLLAKFKDVKIYFVSPEIVKMKDDIKDYLTSSGVEWEESSDLMEVASKCDVVYQTRIQRERFGERLDLYEAARGKYIVDKDLLGVMQKKAIIMHPLPRLDEITADVDADPRAAYFRQAKNGLFIRMALLKLLLVGW
notes: Aspartate transcarbamoylase (ATC; pyrB; At3g20330) of Arabidopsis thaliana, aa 82-390 of the 390 aa precursor protein with an N-terminal chloroplast transit peptide; amplified from cDNA; No cleavage of the tag is described, and the text speaks of the size of purified atATC 'excluding the 2.6 kDa fusion tag', so the tag was probably kept; It is probably a His tag (Ni-sepharose purification); The …
With B1 the “stoichiometry N” value [2] was 3 and the K0.5 [3] was 0.46 ± 0.10 mM.

B2: atATC mutant F161A (enzyme, Arabidopsis thaliana, UniProt P49077 82-390, looked up)
chain: FELSDVIEGKQFDREMLSAIFDVAREMEKIEKSSSQSEILKGYLMATLFYEPSTRTRLSFESAMKRLGGEVLTTENAREASSAAKGETLEDTIRTVEGYSDIIVMRHFESGAARKAAATANIPVINAGDGPGEHPTQALLDVYTIQSEIGKLDGISVALVGDLANGRTVRSLAYLLAKFKDVKIYFVSPEIVKMKDDIKDYLTSSGVEWEESSDLMEVASKCDVVYQTRIQRERFGERLDLYEAARGKYIVDKDLLGVMQKKAIIMHPLPRLDEITADVDADPRAAYFRQAKNGLFIRMALLKLLLVGW
notes: Aspartate transcarbamoylase (ATC; pyrB; At3g20330) of Arabidopsis thaliana, aa 82-390 of the 390 aa precursor protein, with F161 replaced by Ala; Made by site-directed mutagenesis of the atATC construct; same tag and purification as m1; also called atATC-F161A; source: E. coli BLR(DE3)-pLysS, purified (Ni-sepharose, size-exclusion chromatography on Superdex 75); not shown: fusion tag (2.6 kDa)
With B2 the binding result [4] was “binds” and the K0.5 [5] was 0.62 ± 0.13 mM.
